Source: patent publication US6383734B1, “Method to determine inhibition of PAK3 activation of Raf-1” (Advanced Research and Technology Institute, Inc., priority 1998, dated 2002)

What was measured:
[1] = target: T1, Raf-1 (Homo sapiens, UniProt P04049); assay: Raf kinase activity after co-transfection of PAK3 constructs with Raf-1 (with or without Ras[V12]) into COS-7 cells; type: cell-based
T1 construct: expressed in transfected cells; host or cells: COS-7
Experimental: (§1) B. Kinase assays. Kinase samples were assessed for their ability to phosphorylate 500 μM Raf-1 peptide (33,[…]345) (SEQ ID NO:4) in the presence of 500 μMATP (containing 2 μCi [γ-^32P]-ATP at 30° C. for 10 minutes. Incubations were analyzed by P-81 phosphocellulose paper assay. Phosphorylation of serine 338/339 in Raf-CR3 was determined by similar incubations containing 1 μg of substrate at 30° C. for 30-60 minutes. Proteins were resolved by SDS-PAGE, transferred to Immobilon-P and the dried, Ponceau S-stained membranes were autoradiographed. Raf-1 kinase activity was measured by the coupled assay method using GST-Mek 1, GST-Erk1 and myelin basic protein by the method of D. Stokoe et al., Science, 264, 1463 (1994).
F. Transfections. COS-7 cells were transfected with 10 μg of each plasmid DNA (pcEXV3 containing Ras^[V12], myc-Raf, myc-Raf-CX or pJ3H containing PAK3) by electroporation. Cells were lysed three days post-transfection in the presence of protease and phosphatase inhibitors and Raf-1 kinase activity was then examined as described by Stokoe et al., cited above. Transfection/expression efficiencies were assessed by densitometric scanning of Western blots of immunoprecipitates as well as cell lysates and data sets were normalized accordingly.

[2] = test system: Raf-1 serine 338/339; assay: In vitro kinase assay with Raf-1 peptide and Raf-CR3 as substrates; type: biochemical, human
Experimental: as §1
D. Expression of recombinant Raf-CR3 in E. Coli. DNA sequences encoding residues 307-648 of human c-Raf-1 were amplified by polymerase chain reaction using the 5′-primer […] (SEQ ID NO:5) and the 3′-primer […] (SEQ ID NO:6). The amplified DNA was purified, digested with EcoRI and XhoI and cloned into the Stratagene pCAL-n vector. The entire Raf-CR3 coding sequence was verified by termination reaction PCR DNA sequencing. Raf-CR3 D338E339 and A338A339 substitution mutants were generated by site-directed mutagenesis using the Promega Altered SitesTM in vitro mutagenesis system. Raf-CR3-calmodulin binding protein fusions were expressed in E. coli strain BL21 (pLysS). […]

“wild type PAK3: wild type p21-activated protein kinase PAK3, expressed from plasmid in COS-7 cells” was tested, and the “increase of Raf-CX or Ras[V12]-inducible Raf-1 activation on co-expression” value [1] was “did not significantly increase”.
For “Recombinant PAK3: recombinant His-tagged mouse PAK3 from Sf9 cells”, the “stimulation of Raf-1 peptide and Raf-CR3 serine 338/339 kinase activity by GTPase” value ([2]; co-incubation with GST-Rac-GTPγS or GST-Cdc42-GTPγS, FIGS. 4c and 4d) was “stimulated up to six-fold”.
In the case of “p37: 37-kD Raf-1 serine 338/339 kinase purified from rat spleen, a proteolytically cleaved catalytic domain of PAK3”, the “specific activity (Raf-1 peptide phosphorylation)” value ([2]; kinase purified from rat spleen, Mono-P eluate) is reported as 19,500 pmol/min/mg.
